Sequences and labels used below:
T1: FlagPNPase (Flag-tagged PNP) (Escherichia coli, UniProt P05055 1-711)
T1 construct: polynucleotide phosphorylase (PNPase) of Escherichia coli; also called pFlagPNP; polynucleotide phosphorylase
T1 sequence (looked up): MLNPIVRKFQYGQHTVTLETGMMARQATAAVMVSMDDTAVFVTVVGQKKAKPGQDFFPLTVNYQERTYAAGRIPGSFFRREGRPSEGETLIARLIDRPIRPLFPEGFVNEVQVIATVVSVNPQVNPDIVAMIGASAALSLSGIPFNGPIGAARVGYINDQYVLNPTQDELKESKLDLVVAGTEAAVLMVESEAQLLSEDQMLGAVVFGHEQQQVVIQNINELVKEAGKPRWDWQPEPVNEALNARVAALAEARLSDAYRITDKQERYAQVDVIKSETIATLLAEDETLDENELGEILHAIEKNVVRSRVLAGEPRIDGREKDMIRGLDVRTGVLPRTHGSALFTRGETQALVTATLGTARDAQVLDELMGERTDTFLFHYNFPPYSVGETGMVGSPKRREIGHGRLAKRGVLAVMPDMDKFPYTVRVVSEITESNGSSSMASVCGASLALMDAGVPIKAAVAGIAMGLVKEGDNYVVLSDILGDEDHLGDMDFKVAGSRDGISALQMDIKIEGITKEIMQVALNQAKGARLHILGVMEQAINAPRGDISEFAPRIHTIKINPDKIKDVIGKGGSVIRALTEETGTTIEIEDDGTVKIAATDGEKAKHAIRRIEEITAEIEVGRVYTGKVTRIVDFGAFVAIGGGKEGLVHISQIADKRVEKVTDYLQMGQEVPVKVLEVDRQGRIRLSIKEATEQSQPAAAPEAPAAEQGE

T2: FlagRhlB^P238L (Flag-tagged RhlB^P238L) (Escherichia coli, UniProt P0A8J8 1-421, P238L)
T2 sequence: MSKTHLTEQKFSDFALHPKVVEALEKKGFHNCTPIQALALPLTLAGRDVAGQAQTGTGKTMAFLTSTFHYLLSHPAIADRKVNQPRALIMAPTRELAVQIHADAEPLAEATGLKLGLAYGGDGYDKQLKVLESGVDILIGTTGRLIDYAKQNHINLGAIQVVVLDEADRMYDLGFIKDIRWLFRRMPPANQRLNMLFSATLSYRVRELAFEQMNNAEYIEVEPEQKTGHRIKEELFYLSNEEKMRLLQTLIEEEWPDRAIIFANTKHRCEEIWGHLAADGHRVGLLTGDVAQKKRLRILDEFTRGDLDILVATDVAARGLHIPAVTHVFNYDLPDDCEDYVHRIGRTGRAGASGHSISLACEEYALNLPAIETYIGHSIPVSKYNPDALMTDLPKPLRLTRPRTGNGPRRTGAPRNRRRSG

B1: FlagRhlB^wt (Flag-tagged wild-type RhlB) (enzyme, Escherichia coli, UniProt P0A8J8 1-421, looked up)
chain: T2 sequence with L238P
notes: RNA helicase B (RhlB) of Escherichia coli; also called pFlagRhlB^wt
B2: FlagRhlB^P238L (Flag-tagged RhlB^P238L) (enzyme, Escherichia coli, UniProt P0A8J8 1-421, looked up)
chain: T2 sequence
notes: RNA helicase B (RhlB) of Escherichia coli with P238L, introduced into pFlagRhlB by site-directed mutagenesis; also called pFlagRhlB^P238L
B3: FlagPNPase (Flag-tagged PNP) (enzyme)
chain: T1 sequence (looked up)

The target of test [1] is B3. The test is described as follows: SPR. In general terms: In SPR one partner is held on a chip, and binding of the other changes the refractive index at the surface.
In test [2] the target is T1, FlagPNPase (Flag-tagged PNP). The test is described as follows: SPR; Biacore X; purified FlagPNPase immobilised on a CM5 chip by amine coupling; 0.75 to 24 uM FlagRhlB injected at 10 ul/min, 25 °C. As to conditions: both partners purified.
The target in test [3] is B3. The test is described as follows: SPR.
The target of test [4] is T2, FlagRhlB^P238L (Flag-tagged RhlB^P238L). The test is described as follows: SPR.
The target is the same in test [5]. The test is described as follows: SPR. The source holds these as a separate data set.

Numbering of substitutions follows the chain as printed. In names and notes the source's numbering stands.

Broadly, the Kd is the concentration at which binding is half-saturated. Lower therefore signals a tighter complex. One may read the kon as the second-order rate constant of association. A high value points to faster complex formation. Broadly, the koff is a measure of how fast the partners let go of each other. Higher therefore signals a short-lived complex.

On to B1, for which the dissociation constant (Kd) in test [1] stood at 1.67 µM. The kon in test [2] amounted to 1260 M⁻¹ s⁻¹. Besides, the off-rate constant (koff) in test [3] was 0.0021 s⁻¹.

In the case of B2, the kon in test [2] was determined as 311 M⁻¹ s⁻¹.

Regarding B3, the Kd in test [4] came to 6.64 µM. In addition, the koff in test [5] was 0.00207 s⁻¹.

Values taken from article PMC4705995, “The Protein Interaction of RNA Helicase B (RhlB) and Polynucleotide Phosphorylase (PNPase) Contributes to the Homeostatic Control of Cysteine in Escherichia coli*” (The Journal of Biological Chemistry, 2015).
